Measured values taken from article PMC3847722 (Toxins, 2013).

Target: T1, botulinum neurotoxin serotype B (Clostridium botulinum., UniProt P10844)
T1 construct: source: bought: Metabiologics Inc
Assay: BLI; […], dissociation in PBS 1800 s; 1:1 model, […]
Conditions: both partners purified

B1: MCS6-27 (antibody, V domains shown)
VH: EVQLEQSGPGLVKPSQSLSLTCTVTGYSITNDYAWNWIRQFPGNKLEWMGYINYSGTTSYNPSLKSRISITRDTSKNQFFLQFNSVTTEDTATYYCARSPLAYWGQGTLVTVSA
VL: DIVLTQTPASLSVSVGETVTITCRASENIYSHLAWYQQKQGKSPQLLVYTATNLADGVPSRFSGRGSGTQYSLKINSLQSEDFGIYFCQHFWGTPWTFGGGTKLEIK
notes: also called mAb MCS6-27; mAb6-27
Kd: 0.086 nM
